US20200164071A1 (GENSUN BIOPHARMA, published 2020)
Values belong to the binder of their own block, whether it stands above or below them.

Columns and labels:
[1] = target: T1, human TIGIT on CHO-K1 cells (human, UniProt Q495A1 23-244); test: flow cytometry competition with biotinylated hPVR-mIg on CHO-K1 cells expressing human TIGIT
T1 construct: also called hu TIGIT; TIGIT+CHO-K1 cells
T1 sequence: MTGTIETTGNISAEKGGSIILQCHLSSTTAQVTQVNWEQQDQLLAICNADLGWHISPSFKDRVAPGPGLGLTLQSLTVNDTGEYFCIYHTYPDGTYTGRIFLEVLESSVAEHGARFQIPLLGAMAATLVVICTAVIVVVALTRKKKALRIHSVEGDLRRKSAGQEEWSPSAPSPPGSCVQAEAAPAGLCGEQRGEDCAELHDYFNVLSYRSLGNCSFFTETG
Description: (§1) The cells were washed 2 times before staining with PE streptavidin (BioLegend) for 20 min at 4 C. The cells were then washed, resuspended in 30 μl 7 AAD solution, and 35 μl of 10% neutral buffered formalin solution was added. The cells were then incubated for 15 min. Flow cytometry was performed and IC50 was calculated using iQue intellicyt system.

[2] = target: T1, human TIGIT on CHO-K1 cells; test: flow cytometry competition assay: PVR (CD155) signal on human TIGIT CHO-K1 cells against titrated antibody (Example 3 names human PVR-human Fc, m15, with PE anti-human Fc)
Source text: Cells were then washed with FACS buffer and then re-suspended in 7-amino-actinomycin D (7AAD) solution before analysis with iQue intellicyt system.

[3] = target: T2, human TIGIT (antigen of Table 3) (human, UniProt Q495A1 23-141, limits assumed); test: binding kinetics, method not described (Table 3, Binding Affinity)
T2 construct: neither the method nor the antigen construct is described; limits and tags unknown; also called hu TIGIT
T2 sequence: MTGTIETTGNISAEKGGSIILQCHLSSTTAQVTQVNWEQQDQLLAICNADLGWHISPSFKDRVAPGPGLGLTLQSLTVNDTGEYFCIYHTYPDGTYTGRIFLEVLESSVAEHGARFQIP

[4] = target: T1, human TIGIT on CHO-K1 cells; test: flow cytometry, CHO-K1 cells expressing full-length human TIGIT, PE F(ab')2 goat anti-human IgG Fc (Example 5)
Description: (§2) The mixtures were incubated at 4 C for 20 min and washed 3 times. The mixtures were stained with the secondary antibody, PE labeled F(ab′)2-Goat anti-human IgG Fc (Thermo H10104) at 4° C. for 20 min. Cells were washed and resuspended in 7AAD solution and fixed in 10% neutral buffered formalin solution for 15 minutes before analysis with the iQue Intellicyt system.

[5] = target: T1, human TIGIT on CHO-K1 cells; test: flow cytometry blocking assay: biotinylated hPVR-mIg on human TIGIT CHO-K1 cells, PE streptavidin (Examples 4 and 6)
Description: as §1

[6] = target: T3, cyno TIGIT on CHO-K1 cells (cyno, UniProt A0A7N9I9V4 89-312); test: flow cytometry, CHO-K1 cells expressing cyno TIGIT (binding assay of Example 5)
T3 construct: whole, on cells; also called cyno-hu TIGIT
T3 sequence (A0A7N9I9V4 entry or part of it): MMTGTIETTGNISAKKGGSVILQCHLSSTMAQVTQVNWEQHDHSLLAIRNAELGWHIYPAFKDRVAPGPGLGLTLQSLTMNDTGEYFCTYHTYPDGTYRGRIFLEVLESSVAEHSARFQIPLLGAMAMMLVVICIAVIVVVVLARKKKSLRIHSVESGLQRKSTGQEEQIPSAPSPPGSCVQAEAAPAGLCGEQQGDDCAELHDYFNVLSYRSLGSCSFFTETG
Description: as §2

[7] = target: T1, human TIGIT on CHO-K1 cells; test: flow cytometry blocking assay of Example 4: biotinylated hPVR-mIg on human TIGIT CHO-K1 cells
[8] = target: T3, cyno TIGIT on CHO-K1 cells; test: flow cytometry blocking assay of Example 4: biotinylated hPVR-mIg on cyno TIGIT CHO-K1 cells
[9] = target: T1, human TIGIT on CHO-K1 cells; test: flow cytometry, CHO-K1 cells expressing human TIGIT (binding assay of Example 5)
Description: as §2

[10] = target: T4, cyno PD-1 on CHO-K1 cells (cyno); test: flow cytometry blocking assay of Example 11, PD-L1 on cyno PD-1 CHO-K1 cells; cyno taken from the legend paragraph 42 ('cyno-hu'), while Example 11 speaks of human PD-1 and human PD-L1 for this figure
T4 construct: whole, on cells; also called cyno hu PD-1; Cyno PD-1 transfected CHO-K1 cells
Description: (§3) Human or Cyno PD-1 transfected CHO-K1 cells were washed with FACS buffer (0.5% BSA 2 mM EDTA in PBS) and re-suspended at a concentration of 10⁶ cells/ml. […] The cells were then washed and re-suspended in 30 μl 7 AAD solution; 35 μl 10% neutral buffered formalin solution was then added and incubated for 15 mins. before analysis using the iQue intellicyt system.

[11] = target: T5, human PD-1 on CHO-K1 cells (human, UniProt Q15116 25-288); test: flow cytometry blocking assay: FITC human PD-L1-Fc on human PD-1 CHO-K1 cells (Example 11); axis: % of PD-L1 Binding Signal; first of two legend entries printed PD-05 Human
T5 construct: also called Human PD-1 transfected CHO-K1 cells
T5 sequence (Q15116 25-288): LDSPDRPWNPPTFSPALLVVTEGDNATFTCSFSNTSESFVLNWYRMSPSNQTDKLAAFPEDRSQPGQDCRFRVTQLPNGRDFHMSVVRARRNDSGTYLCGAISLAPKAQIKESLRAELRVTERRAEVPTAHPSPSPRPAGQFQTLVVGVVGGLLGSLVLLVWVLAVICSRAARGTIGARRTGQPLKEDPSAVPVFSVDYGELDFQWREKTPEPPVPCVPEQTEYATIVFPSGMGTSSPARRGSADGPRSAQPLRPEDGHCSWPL
Description: as §3

[12] = target: T5, human PD-1 on CHO-K1 cells; test: flow cytometry blocking assay: FITC human PD-L1-Fc on human PD-1 CHO-K1 cells (Example 11; the legend paragraph 42 calls it binding to hu PD-L1)
Description: as §3

[13] = target: T5, human PD-1 on CHO-K1 cells; test: flow cytometry blocking assay: FITC human PD-L1-Fc on human PD-1 CHO-K1 cells (Examples 11 and 16); title: Blocking PD-L1 binding to PD-1
Description: as §3

[14] = target: T5, human PD-1 on CHO-K1 cells; test: flow cytometry blocking assay: FITC human PD-L1-Fc on human PD-1 CHO-K1 cells (Examples 11 and 15); title: PD-1 Blocking Activity Screening
Description: as §3

[15] = target: T6, His tagged human PD-1 protein (human, UniProt Q15116 25-170, limits assumed); test: bio-layer interferometry (Octet RED96), antibody on anti-human IgG capture biosensors, His tagged human PD-1 as analyte, 1:1 global fit (Example 12)
T6 construct: also called huPD-1-His; not shown: His tag
T6 sequence (Q15116 25-170 limits assumed): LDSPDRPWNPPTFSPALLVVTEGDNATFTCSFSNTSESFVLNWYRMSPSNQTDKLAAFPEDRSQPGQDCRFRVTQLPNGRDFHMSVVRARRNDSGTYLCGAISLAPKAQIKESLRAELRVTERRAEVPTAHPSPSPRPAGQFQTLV
Description: […] was carried out using the Octet RED96 system (ForteBio Octet RED96 System) to characterize the binding kinetics of antibodies against His tagged human PD-1 protein. 20 nM of antibody was loaded onto the anti-human IgG capture biosensors. Association of analyte (His tagged human PD-1 protein) was observed by placing the biosensors in wells containing 2 or 3 fold serial dilution of analytes (72 nM being the highest concentration) for 5 mins. Dissociation was measured after transfer of the biosensors into kinetic buffer alone and monitoring of the interferometry signal for 10 minutes. The observed on and off rates (Ka and Kd) were fit using a 1:1 binding global fit model comprising at least 5 concentrations tested, and the equilibrium binding constant KD was then calculated.

[16] = target: T5, human PD-1 on CHO-K1 cells; test: flow cytometry blocking assay: FITC human PD-L1-Fc on human PD-1 CHO-K1 cells (Example 11)
Description: as §3

- IC50 [1]: 0.12 to 0.31 nM
- IC50 (read off the curve) [2]: ~0.3 nM
- Kd [3]: 0.67 nM
- koff [3]: 0.000538 s⁻¹
- kon [3]: 809000 M⁻¹ s⁻¹
- EC50 [4]: 0.23 nM
- IC50 (read off the curve) [5]: ~0.4 nM
B1: T-04 (antibody, V domains shown)
VH: EVQLVQSGAEVKKPGATVKISCKVSGYTFTDHTIHWVQQAPGKGLEWMGYIYPRDGSSKYNVKFKGRVTITADTSTDTAYMELSSLRSEDTAVYYCATGMLRWFAYWGQGTLVTVSS
VL: DIQMTQSPSSLSASVGDRVTITCKASQDVFTAVAWYQQKPGKAPKLLIYSASYRYTGVPSRFSGSGSGTDFTFTISSLQPEDIATYYCQQHYSIPLTFGAGTKLEIK
notes: Anti-human TIGIT monoclonal antibody from mouse hybridoma; also called anti-hu TIGIT mab T-04

- IC50 [1]: 0.4 to 1.67 nM
- EC50 (read off the curve) [6]: ~1 nM
- IC50 (read off the curve) [7]: ~1 nM
- IC50 (read off the curve) [8]: ~1 nM
- Kd [3]: 5.44 nM
- koff [3]: 0.00376 s⁻¹
- kon [3]: 690000 M⁻¹ s⁻¹
- EC50 [4]: 0.4 nM
- IC50 [5]: 1.2 nM
- EC50 (read off the curve) [9]: ~0.5 nM
B2: T-08 (antibody, V domains shown)
VH: QVQLVQSGSELKKPGASVKVSCKASGYTFTNYGMNWVRQAPGQGLEWMGWINTYTGEPTYADDFKGRFVFSLDTSVSTAYLQISSLKAEDTAVYYCARAPPYGYDVRFAYWGQGTLVTVSS
VL: DVVMTQSPLSLPVTLGQPASISCRSSQSIVHSNGNTYLEWFQQRPGQSPRVLIYKVSDRFSGVPDRFSGSGSGTDFTLKISRVEAEDVGVYYCFQGSHVPWTFGRGTKLEIK
notes: Anti-human TIGIT monoclonal antibody from mouse hybridoma; also called anti-hu TIGIT mab T-08; anti-TIGIT (T-08)

- IC50 [10]: 1.6 nM
- IC50 [11]: 0.56 nM
- IC50 [12]: 0.56 nM
B3: PD-05 (antibody, V domains shown)
VH: QVQLVQSGAEVKKPGASVKVSCKASGYTFTTYYIYWVRQAPGQGLEWMGGINPGNGGTNFNEKFKIRVTMTRDTSISTAYMELSSLRSEDTAVYYCARRYHGYDGGLDYWGQGTLVTVSS
VL: DIVLTQSPASLAVSPGQRATITCRASKSVSTSGFSYIHWYQQKPGQPPKLLIYLASNLESGVPARFSGSGSGTDFTLTINPVEANDTANYYCQHTWELPNTFGGGTKVEIK
notes: also called anti-PD-1 mab PD-05

- IC50 [13]: 1.5 nM
- IC50 (read off the curve) [14]: ~1 nM
- Kd [15]: 2.2 nM
- koff [15]: 0.000272 s⁻¹
- kon [15]: 126000 M⁻¹ s⁻¹
- IC50 [16]: 2.28 nM
B4: PD-01 mab (antibody, V domains shown)
VH: EVQLVESGGGLVQPGGSLRLSCAASGFTFSNFLMSWVRQAPGKGLEWVSTISGGGRDTYYVDSVKGRFTISRDNSKNTLYLQMNSLRAEDTAVYYCAKRTTYSMDYWGQGTSVTVSS
VL: DIQMTQSPSSVSASVGDRVTITCLASQTIGTWLAWYQQKPGKAPKLLIYAATSLADGVPSRFSGSGSGTDFTLTISSLQPEDFATYYCQQFYSIPWTFGGGTKLEIK
notes: also called anti-PD-1 (PD-01)
